Experimental data from the supplement of paper PMC10567573.

B1: FBF1 (parent)
chain: YQRPQDSEDMWGDEDFTFGAYQPT
B2: PRPH (parent)
chain: DEIEFLKKLHEEELRDLQVSVESQ

Variants of: B1
Test: protein stability index of a GFP-peptide fusion (GPS, HEK-293T) (PSI 1-6); higher = more stable
Details: c terminus: a fixed tail appended
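Further: lentivirally expressed fusions sorted by FACS into six bins by GFP to DsRed ratio, PSI derived from sequencing read proportions per bin multiplied by bin number.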

Protein stability index, by site and new letter:
T24: G 3.25 | R 2.38 | F 2.29 | M 2.52 | P 3.17
P23: T 2.87 | K 2.68 | V 2.4 | G 3.19 | S 2.61 | C 2.96 | Y 2.85
W11: K 4.27 | F 3.83 | V 4.25
G19: Q 2.78 | E 3.76 | D 3.49 | T 2.6 | W 1.84
S7: G 2.47 | F 2.41 | C 2.34 | V 2.82 | N 3.2 | K 3.01 | R 2.71
R3: T 2.62 | E 4.79 | L 3.46 | N 3.71 | F 3.12 | S 3.11
D6: P 2.3 | N 2.25 | M 2.32 | W 1.64 | H 1.84
D13: V 1.8 | Y 1.72 | M 2.32 | E 3.13 | I 2.13
A20: D 3.02 | Q 2.97 | N 2.9 | V 2.72 | T 3.05 | M 2.62
Q22: D 3.06 | V 2.37
P4: R 2.26 | E 3.56 | D 3.39 | C 2.7 | M 2.74
Q2: V 1.78 | N 3.14 | F 3.25 | L 3.45 | R 3.83 | I 2.08 | T 3.54
E8: L 2.1 | F 2.13 | T 2.29 | D 2.47 | I 1.95 | S 2.32 | Q 1.81 | H 2.01
D9: A 2.17 | M 1.55 | T 2.59 | K 2.01
G12: L 2.28 | R 2.96 | A 2.92 | I 2.43
D15: G 2.13 | I 2.11 | S 2.16 | N 2.13
Y21: N 3.51 | H 3.07
Q5: V 2.56 | K 2.01 | E 3.76 | L 2.09 | N 3.03 | D 3.79
F18: W 2.53 | T 3.77 | M 3.25
M10: C 3.23 | R 3.66 | T 3.73 | E 4.53 | N 4.06
F16: E 3.73 | K 2.87 | Q 3.4 | H 3
E14: C 2.11 | L 1.66 | S 2.43 | T 2.15 | G 1.88
Y1: M 4.6 | R 3.94 | K 4.24 | W 3.93 | A 4.84 | P 4.71 | H 4.76 | D 4.87
T17: A 3.46 | C 2.65 | P 2.93 | W 1.84 | R 2.68 | Q 3.44

Variants of: B2
Test: as above
Details: c terminus: a fixed tail appended

Protein stability index, by site and new letter:
I3: G 5.05 | C 5.09 | K 5.18 | H 5.24 | E 5.43 | F 4.88 | A 5.36 | D 5.68
D1: P 4.53 | E 4.78 | S 4.64 | L 4.63 | C 3.41 | Y 4.32 | A 4.22 | M 4.18 | Q 3.77 | K 3.95 | H 4.99 | F 4.07 | V 4.31 | T 4.71 | I 3.46 | W 3.97 | R 4.01 | G 4.53 | N 4.78
E2: V 2 | S 3.65 | M 2.05 | G 3.56 | A 2.22 | W 1.69 | F 2.13 | P 4.13 | K 3.94 | D 5.01 | T 2.98 | N 4.67 | H 4.08 | I 2.1 | Q 3.73 | C 2.04 | R 4.39 | Y 1.91
